Experimental data reported in the DeepSol protein solubility set.

Assay: soluble on expression in E. coli; label from the status in PepcDB or PDB records

| Sequence | soluble on expression in E. coli |
| --- | --- |
| MSLLQEMTIKNFAIIESLSLTFQEGMTVLTGETGAGKSIIIDALGLLVGGRGSADFIRHGEERLELQGLFALAEDNLACRNALIENGIDASDDMVVLERSLFRSGKNSCRINGKLVTTVLLRQIGSKLIDIHSQHEHQELMNEEFHLSLLDRFASDKIKPALTKYQTNFKEYQTIEKEWQNWTKNERELAQRLDMLRFQQQEIENANLQAGEEDRLLEQKNILANFEKLNENLQGAYAAIQGEPGGLEFVGEAMRQMEAAASIHTDYKAVSEAISSSYYMLEDSMSQIRQSLDQLEFQPEELNQIESRLNDLNQLKRKYGKTIEDIIQYEQEISSEMEKLTDSESHVGHLETKLATLKAELTKQANTLTEIRKKAAVTLEKQIKQELNHLYMEKAIFSVRFEANKMELTDSGQDSVVFYMSTNPGEPLKPLAKIASGGELSRMMLALKTIFSRHQGITSIIFDEVDTGVSGRVGQAIAEKIYAVSVGSQVLCISHLPQVAAMANHHYYITKKVQNKRTTTSVTVLKGEEKVEEISRMIAGIEVTELTKQHAKEMIEQAEKVKQTYEGHHHHHH | soluble |
| MGSDKIHHHHHHMPVDWPLRFPQLSGGASRPHSSLASTCVGGLQELMQSCYPPRGGCWIAAVLEDAGVERVCGLLGKGHAGVVLLVEWRGVAAALKVRRRDSRRGSLEPEARVAEKAALAGAAPEVYGYGEEFIAMAPALGPSLQDLAEEGLLTPQHILASIEAAWALDNAGILHGELHRPWRNVLFNPRKALIIDYDSASSGCGNVVKLVSGISRRVPSLLGLVRSERFRDLAKRYYREGCGKATYMEMLDEVKKHISVI | not soluble |
| MGEIADSLAGLTISVVSPDNQLAATVRRRREVTVHFRPGSYERYDARTLETQLSQLFTLVMSGYRQGYMSVMEAHDMTVMADASDVDTEAGRIVRRRRDETVALGESAQGMVRAKTRGLSEWRFKIADGALSRLSEEQFTAEIHGAFMNVMADWSRRVRRIHWEVFSPDRVPAAGR | not soluble |
| MSMIYKNIVCPVCGAACDDIQVEFGDGKIEARNACKMGNAKFQEVVSSHRLRQPLIKVNGRLTAAAWDEALERAADILVSAKRPLLFMGSETSCEAHEVGLKIGEYLGALVDSNATICHGPTAMGIQESGKVGATEGQKKNRGDLIVYWGTNPLESMPRQMSRYGVFPRGYWTKRGRFDRTVITVDPRKTPTTEASDLHVQLKPGSDYELISALLTLLHGKTPHPSVEEITGVPIPVMEEMLDMMKNCNFGAISVGLGLSSSIGKHRNAEIAMNLVKELNNYAKFTLGALRGHCNVAGFNQVASYMYGYPFGLDFMRGHPRYNPGEYTTVDVLREKDVDAAFVMCADLVCHIPADCASYLAEIPMVCLDIAPCPSTAASDVVLPGVIDAMECDGTFYRLDDVAVHFEPFTSSPFEFTKSNEDTLKQLFEKIKARK | not soluble |
| MSLARQNYHDEVEAAVNKQINVELYASYVYLSMSAHFDRDDIALRNIAKFFKEQSDEERGHATELMRIQAVRGGRVAMQNIQKPEKDEWGTVLEAFEAALALERANNASLLKLHGIAEQRNDAHLTNYIQEKYLEEQVHSINEFARHIANIKRAGPGLGEYLFDKEEFSD | not soluble |
| MAGDPMGRQRGAGLGGGHDEREQTLNQMLVEMDGFSGNDGVIVIAATNRPDVLDPALTRPGRFDRQVVVGLPDVKGREQILKVHMRKVSVAQDVDAMTLARGTPGYSGADLANLVNEAALFAARVNKRTVTMLEFEKAKDKINMGPERRTMIMTDKQKESTAYHEAGHAIVGYLVPEHDPVHKVTIIPRGRALGVTFFLPEGDQISISQKQLESKLSTLYAGRLAEDLIYGEENISTGASNDIKVATNIARNMVTQWGFSEKLGPILYTEDEGEVFLGRSMAKAKHMSDETAHSIDEEVRAIVNRNYARAREILIDNMDILHAMKDALVKYETIEEEQIKQLMNREPVTPPSGWGEPKTQQAAYANSTTNDTKPESAVENTDDFNVAAALEHHHHHH | not soluble |
| MAKELCFEGITLKAFDEQYRSAINDFDLNERQQIYSSLPKEVIDDAINDVDRIANVAINDKNEVVGFFVLHRYYQHEGYDTPENVVYIRSLSINEKYQGFGYGTKIMMSLPQYVQGVFPDFNHLYLVVDAENDNAWNLYERAGFMHTATKEEGPIGKERLYYLDLDSKHVSSLKLEEESRSEVTNVHIINLMIDGQKVGFIALEQIGERMNIAAIEVDKSYRFNGIGSSALRQLPTYLRKNYDNLNVITMILFGENNDFKPLCLNSNFVEIEQTDDYVVFEKYLNY | not soluble |
| MLKINYPIKGACQCGQVTYQLLAAPLMVAACHCRECQKLSTSAFSITAVVNATDVVFSGEMSDWSRLADNGNTNGAKFCPCCGNRIYHFNPNFPDKIKLKPSTLEDTRVIQPTMHIWTSEKQAWFKLPLDLPSHEKQPF | not soluble |
| MSEFWLISAPGDKENLQALERMNNVTSKSNLSHNTKFAIPDFKVGTLDSLVGLSDELGKLDTFAESLIKRMAQSVVEVMEDSKGKAHETLLANGVDLTSFVTHFEWDMAKYPAKQPLVSVVDTLAKQLAQIETDLKSRTAAYSVLKANLENLEKRSTGNLFTRTLSDIVSKEDFVLDSEYLITLLVIVPKSSFAQWQKTYESLSDMVVPRSTKLIAEDNEGGLFTVTLFRKVIEDFKVKAKENKFIVREFYYDEKEIKREREEMTRLLSDKKQQYPTSCVALKKGSATYRDHKVKVAPLGNPARPAAGQTDRDRESEGEGEGPLLRWLKVNFSEAFIAWIHIKALRVFVESVLRYGLPVNFQAVLLQPHKKSATKRLREVLNSVFRHLDEVAAASILDASVEIPGLQLSNQDYFPYVYFHIDLSLLD | soluble |
| ERVPKTVDVETIRSRIAQIDGVGGVHDVHVWSIDGQQDIATVHVVVDENVNVKDCTTLDRIQKVFHDAGIDHVTVQLEHDTHMSHELPCQH | soluble |
| MENLKETVDIVVNSRYPEMNREGRELLAQVLIRKELEKGEMLLNEGQISRHMVFVGKGMLRQFYYKNGKDVTEHFSYEGCILMCIESLLKQEPTHLMAEALEPAVVYMLPYDVLQKLLEQSKEINAFYRKVLEYSLIVSQIKADSWRFETARERYNLLLHHHPEIIKRAPLSHIASYLLMTPETLSRVRSGVL | not soluble |
| MLTTLAISNYRTLREIVLPLGRLNVVTGANGSGKSNLYKALRLLAQTAQGGVVNALALEGGLDSCFWAGPENLTKGMLAGDTPIEATVRQAPKRLKLGFAGEDFSYLIELGLPKPDSTTLFGLDPQIKREAIWNGAKYRPASVLVERRGPMVKSRSQDGQGWITLSAHLQSSDSIFTELADPERSPEVLKLRDSIRAWRFYDHFRTDTDAPARRPQLGTATPVLHHDGRDLPSAIQTIFEIGDKSAFDHAVSDAFPGAKVRITPQAGGILQLEFQQQGLLRPLYASELSDGTLRYLLLIAALLTPRPPELMVLNEPETSLHPDLLPALARLIAKASELEHHHHHH | not soluble |
| MGSDKIHHHHHHMPIAIYQGHHHSLAPADINIVIDVIRAFTVAHYAFIGGAKEILLVRTADEAFALKDTYPDYVLTGEEKGVGISGFDLDNSPKRMAGQNMTDKSLIQKTTNGVTAALGALNAKHLFVTGFSNAKTTAQHVKKLVANDCVINIVASHPSGDDDMACAEYIKGIIEGTNVVTAAEAIERIKGSSVAEKFFDCRQPLFDSEDIVYCTKELTGDFVMKVKQDGEVPTIERVII | not soluble |
| KVGLIIISHGRIATETVNVVKELLGVKFPVAIDMPLDEKPINIYNKAVELSKIIDQGKGILFLVDIGSLTNIGQIVNKRTNISTKTIDRVDLLMALEATRKVSMGEEELDEIFFSLLKDRMGYNYELEKHIDKS | not soluble |
| WTCNKFRCGEKRLTRSLCACSDDCKDQGDCCINYSSVCQGEKS | soluble |
| MLINEYRPGAGIGWHRDKPHFEDVAGISLLAPCSFRLRRKSGDRWERRTIVVEPRSAYLMTGPSRTEWEHSIPPLAEHRYSITLRTLRSQNPLEHHHHHH | not soluble |
| MGHHHHHHSHMDAIHKQKSLQFKKTMDAKKNYEQKCRDKDEAEQAVSRSANLVNPKQQEKLFVKLATSKTAVEDSDKAYMLHIGTLDKVREEWQSEHIKACEAFEAQECERINFFRNALWLHVNQLSQQCVTSDEMYEQVRKSLEMCSIQRDIEYFVNQRKTGQIPPAPIMHENFYSSQKNAVPAGKATGPNLARRGPLPIPKSSPDDPNYSLVDDYSLLYQ | not soluble |
